# B1: Actin-binding protein WASF1 (Rattus norvegicus (Rat)), Q5BJU7 (parent)
# chain: MPLVKRNIDPRHLCHTALPRGIKNELECVTNISLANIIRQLSSLSKYAEDIFGELFNEAHSFSFRVNSLQERVDRLSVSVTQLDPKEEELSLQDITMRKAFRSSTIQDQQLFDRKTLPIPLQETYDVCEQPPPLNVLTPYRDDGKEGLKFYTNPSYFFDLWKEKMLQDTEDKRKEKRKQKQKNLDRPHEPEKVPRAPHDRRREWQKLAQGPELAEDDADLLHKHIEVANGPASHFETRPQTYVDHMDGSYSLSALPFSQMSELLSRAEERVLVRPHEPPPPPPMHAAGDARPTPTCVSSAAGLIENRPQSPAAGRTPVFVSPTPPPPPPPLPSALSTSSLRASMTSTPPPPVPPPPPPPAPALQAPAVPPPPAPLQIAPGVLHPAPPPIAPPLVQPSPPVARAAPVCETVPVHPLPQGEVQGLPPPPPPPPLPPPGIRPSSPVTVAALAHPPSGLHPTPSPAPGPHAPLMPPSPPSQVLPASEPKRHPSTLPVISDARSVLLEAIRKGIQLRKVEEQREQEAKHERIENDVATILSRRIAVEYSDSEDDSEFDEVDWLE
# Variants of: B1
# Details: with gnai3_rat Gnai3, P08753
# gnai3_rat Gnai3, P08753, sequence (P08753 whole entry): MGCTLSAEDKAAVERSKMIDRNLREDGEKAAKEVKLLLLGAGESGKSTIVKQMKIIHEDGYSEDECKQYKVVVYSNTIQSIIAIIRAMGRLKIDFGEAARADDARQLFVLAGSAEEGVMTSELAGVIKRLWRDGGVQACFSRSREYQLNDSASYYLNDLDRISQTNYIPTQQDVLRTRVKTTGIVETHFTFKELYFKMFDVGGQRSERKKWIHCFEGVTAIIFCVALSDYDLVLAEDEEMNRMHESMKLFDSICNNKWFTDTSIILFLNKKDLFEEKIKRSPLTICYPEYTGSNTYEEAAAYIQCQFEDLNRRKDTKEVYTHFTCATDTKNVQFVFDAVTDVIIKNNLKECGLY
row,effect of a mutation on the interaction,Variant
1,decreasing interaction,MPLVKRNIDPRHLCHTALPRGIKNELECVTNISLANIIRQLSSLSKYAEDIFGELFNEAHSFSFRVNSLQERVDRLSVSVTQLDPKEEELSLQDITMRKAFRSSTIQDQQLFDRKTLPIPLQETYDVCEQPPPLNVLTPYRDDGKEGLKFYTNPSYFFDLWKEKMLQDTEDKRKEKRKQKQKNLDRPHEPEKVPRAPHDRRREWQKLAQGPELAEDDADLLHKHIEVANGPASHFETRPQTYVDHMDGSYSLSALPFSQMSELLSRAEERVLVRPHEPPPPPPMHAAGDARPTPTCVSSAAGLIENRPQSPAAGRTPVFVSPTPPPPPPPLPSALSTSSLRASMTSTPPPPVPPPPPPPAPALQAPAVPPPPAPLQIAPGVLHPAPPPIAPPLVQPSPPVARAAPVCETVPVHPLPQGEVQGLPPPPPPPPLPPPGIRPSSPVTVAALAHPPSGLHPTPSPAPGPHAPLMPPSPPSQVLPASEPKRHPSTLPVISDARSVLLEAIRKGIQLRKVEEAREQEAKHERIENDVATILSRRIAVEYSDSEDDSEFDEVDWLE [Q517A]

# Variants of: B1
# Details: with actb_rat Actb
row,effect of a mutation on the interaction,Variant
1,decreasing interaction,MPLVKRNIDPRHLCHTALPRGIKNELECVTNISLANIIRQLSSLSKYAEDIFGELFNEAHSFSFRVNSLQERVDRLSVSVTQLDPKEEELSLQDITMRKAFRSSTIQDQQLFDRKTLPIPLQETYDVCEQPPPLNVLTPYRDDGKEGLKFYTNPSYFFDLWKEKMLQDTEDKRKEKRKQKQKNLDRPHEPEKVPRAPHDRRREWQKLAQGPELAEDDADLLHKHIEVANGPASHFETRPQTYVDHMDGSYSLSALPFSQMSELLSRAEERVLVRPHEPPPPPPMHAAGDARPTPTCVSSAAGLIENRPQSPAAGRTPVFVSPTPPPPPPPLPSALSTSSLRASMTSTPPPPVPPPPPPPAPALQAPAVPPPPAPLQIAPGVLHPAPPPIAPPLVQPSPPVARAAPVCETVPVHPLPQGEVQGLPPPPPPPPLPPPGIRPSSPVTVAALAHPPSGLHPTPSPAPGPHAPLMPPSPPSQVLPASEPKRHPSTLPVISDARSVLLEAIRKGIQLRKVEEAREQEAKHERIENDVATILSRRIAVEYSDSEDDSEFDEVDWLE [Q517A]

# Variants of: B1
# Details: with arpc2_human ARPC2, O15144
row,effect of a mutation on the interaction,Variant
1,decreasing interaction,MPLVKRNIDPRHLCHTALPRGIKNELECVTNISLANIIRQLSSLSKYAEDIFGELFNEAHSFSFRVNSLQERVDRLSVSVTQLDPKEEELSLQDITMRKAFRSSTIQDQQLFDRKTLPIPLQETYDVCEQPPPLNVLTPYRDDGKEGLKFYTNPSYFFDLWKEKMLQDTEDKRKEKRKQKQKNLDRPHEPEKVPRAPHDRRREWQKLAQGPELAEDDADLLHKHIEVANGPASHFETRPQTYVDHMDGSYSLSALPFSQMSELLSRAEERVLVRPHEPPPPPPMHAAGDARPTPTCVSSAAGLIENRPQSPAAGRTPVFVSPTPPPPPPPLPSALSTSSLRASMTSTPPPPVPPPPPPPAPALQAPAVPPPPAPLQIAPGVLHPAPPPIAPPLVQPSPPVARAAPVCETVPVHPLPQGEVQGLPPPPPPPPLPPPGIRPSSPVTVAALAHPPSGLHPTPSPAPGPHAPLMPPSPPSQVLPASEPKRHPSTLPVISDARSVLLEAIRKGIQLRKVEEAREQEAKHERIENDVATILSRRIAVEYSDSEDDSEFDEVDWLE [Q517A]

# From IntAct's records for PubMed 16530190
